In the supplement of paper PMC9170038:

Tested on: MS2 coat protein
Test: apparent KD of MS2 coat protein; designed switch direction (-1 OFF switch, 1 ON switch): 1; higher = weaker reporter binding
Method in brief: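 Designed RNA switches with common flanks were transcribed on Illumina chips by stalled E. coli RNA polymerase and titrated with SNAP-549-labelled MS2 coat protein, from 0.7 or 1.5 nM doubling to 3 µM, in Tris-HCl pH 7.5 buffer with KCl, MgCl2, BSA, DTT, tRNA and Tween-20. Steps lasted 0.8–1.5 h (lowest) to 10–20 min (highest). Titrations ran without input, with 200 uM small-molecule ligand, or with an oligonucleotide input. Normalised cluster fluorescence was curve-fitted, and apparent KD is the per-design median over clusters.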

[1] = input ligand: microRNA oligo, concentration not stated
[2] = Eterna round: R95, input ligand: microRNA oligo, concentration not stated
[3] = Eterna round: R95, input ligand: FMN 200 uM
[4] = Eterna round: R95, input ligand: none

Row | Sequence | apparent KD of MS2 coat protein (input ligand: FMN 200 uM) | apparent KD of MS2 coat protein [1] | apparent KD of MS2 coat protein (input ligand: none) | apparent KD of MS2 coat protein [2] | apparent KD of MS2 coat protein [3] | apparent KD of MS2 coat protein [4]
1 | AGCUAUCGAAAACGAUAGCAUAAGCAUGUACAUGAGGAUCACCCAUGUCAUGUACAAGCUUUUUGCUCGUCUUAAAA [JL zipper 27] (Eterna round: R96, puzzle: Sensor for hsa-mir-208a) | 0.411 µM | 0.0143 µM | 0.426 µM |  |  | 
2 | AGAUCAUGACGAGGAUAUGGUACAUGAGGAUCACCCAUGUAUGUAUCAUAACGCGAAUGACGAAACCAGAAGGCGUCGUGGUCA [JL SSNG2 1.11] (Eterna round: R96, puzzle: Same State NG 2) | 0.0102 µM | 0.0146 µM | 0.0149 µM |  |  | 
3 | CUGAGCGAUCUAGGAUAUCACGUCGAUUAGACGUGAGAAGGAGAUCAUAACAUGAGGAUCACCCAUGUAUUACAUGAAGCUCAG [SSNG1/6-A2] (Eterna round: R96, puzzle: Same State NG 1) | 0.0175 µM | 0.00915 µM | 0.0196 µM |  |  | 
4 | AUUAAUAAUCGAGGAUAUCACGUCGAAUAGACGUGAGAAGGCGAUCAUAACAUGAGGAUCACCCAUGUAUUACAUGAAAUUAAU [SSNG1/4-B4] (Eterna round: R96, puzzle: Same State NG 1) | 0.0224 µM | 0.0205 µM | 0.0381 µM |  |  | 
5 | CAUUCUUUUCCGGAGGAUAUGCUACCCUUUACAUGAGGAUCACCCAUGUUACCCUCUUCUUGUCAGUAGAAGGCCGUUUCUUAAC [Regan] (puzzle: Same State 2) |  |  |  | 0.0273 µM |  | 
6 | GAAUAGUUGAGAGGAUAUCUAUGAUAAAAGGAUAGAGAAGGUUUUAACAUGAGGAUCACCCAUGUAGGACUAUAUAUGUGAAUA [Parity 82 - Jieux - Same State NG 1] (Eterna round: R96, puzzle: Same State NG 1) | 0.0125 µM | 0.0119 µM | 0.0169 µM |  |  | 
7 | AUUACUAACAUAGGAUAUCAUGCGAAAAUUGCGUGAGAAGGGUGGACACUGUCAUUCUCGGAGCACAUGAGGAUCACCCAUGUG [SameState NG1 #70] (Eterna round: R96, puzzle: Same State NG 1) | 0.0806 µM | 0.0424 µM | 0.059 µM |  |  | 
8 | AAAAAACAUGAGGAUCACCCAUGUGAAAAUAUGGGAGGAUAUACAAACACGAAAGUGAAAGUAGAAGGCCUAAAAA [SS! MT 16] (Eterna round: R96, puzzle: Same State 1) | 0.0172 µM | 0.0954 µM | 0.127 µM |  |  | 
9 | AGUCCAGCCUGAGCUGGACAAAAGCAUGUACAUGAGGAUCACCCAUGUCAUGUACAAGCUUUUUGUUCGUCUUAAUA [Zipper 49 - 13] (puzzle: Sensor for hsa-mir-208a) |  |  |  | 0.0146 µM | 0.258 µM | 0.35 µM
10 | ACAUGAGAGUUAGGAUAUCUUGUACCUACAUGUGACAUGAGGAUCACCCAUGUGGUAAGUAUGACAGAGAAGGAACAGAUAUGU [Equivalance 69 - Jieux - Same State NG 2] (Eterna round: R96, puzzle: Same State NG 2) | 0.0362 µM | 0.0502 µM | 0.0911 µM |  |  | 
11 | GGUAUUAACACAGGAUAUGCUUACGAAACGUAAGCAGAAGGGUGAACAUGAGGAUCACCCAUGUUUGUACCAGGGCGUGAGCCC [JL SSNG1 1.72] (Eterna round: R96, puzzle: Same State NG 1) | 0.349 µM | 0.632 µM | 0.923 µM |  |  | 
12 | GAGAGAGGGCGAGGAUAUUCGGUGAUAAUGAUGGAAGAAGGCGCAGACAUGAGGAUCACCCAUGUGGGAAUAAUCCAGAGAGAG [Parity 14 - Jieux - Same State NG 1] (Eterna round: R96, puzzle: Same State NG 1) | 0.206 µM | 0.101 µM | 0.131 µM |  |  | 
13 | GCCGGCUGGUGAGGAUAUGGCACCUUAUUGGUGCCAGAAGGCAUGUCAAUUGACAUGAGGAUCACCCAUGUGUUGUCGUUGGCG [salish99_SSNG1_r04_609] (Eterna round: R96, puzzle: Same State NG 1) | 0.698 µM | 0.0724 µM | 0.742 µM |  |  | 
14 | AUUGCUUACGCAGGAUAUGAUGCGAAAAUUGCGUCAGAAGGGUGAAGUGACUCGUUGCAACAGGACAUGAGGAUCACCCAUGUC [SameState NG1 #91] (Eterna round: R96, puzzle: Same State NG 1) | 0.089 µM | 0.127 µM | 0.141 µM |  |  | 
15 | GGUGGGUUACUACCCACACAUGAGGAUCACCCAUGUAUUGGGAAGGAUAUGGUGCCUGUGUGGUACCAGAAGGUCGUGAAGGUG [SS-NG3-LRO19] (Eterna round: R96, puzzle: Same State NG 3) | 0.58 µM | 0.312 µM | 3.47 µM |  |  | 
16 | CUCAAACAUGAGGAUCACCCAUGUGUUGUCAUGGGAGGAUAUCUAAGUUCAUUGUAUUCGGGAGAAGGCCUAUGUC [× ×•×ª×• ×ž×“×™× ×” × ×—×ª-09] (puzzle: Same State 1) |  |  |  | 0.362 µM |  | 
17 | CCCGUCUACAGAAAGGUAGAUGGGAAUGUACAUGAGGAUCACCCAUGUUAAUAUGAGUUUGUUGAUAAUUAUGAAUU [Modxample 50 - Jieux - Sensor for bsa-mir-208a] (Eterna round: R96, puzzle: Sensor for hsa-mir-208a) | 0.0197 µM | 0.0189 µM | 0.0244 µM |  |  | 
18 | AUUAGUGGUGGAGGAUAUGGGAAAGGAAGUGUACUAGAAGGCCACCGCCCUCUAGCACAUGAGGAUCACCCAUGUAUAGAGCCC [PowerStrip SSNG 1.14] (Eterna round: R96, puzzle: Same State NG 1) | 0.243 µM | 0.0258 µM | 0.0882 µM |  |  | 
19 | ACAUGAGAGCUAGGAUAUUUUGUACCUACAUGUGACAUGAGGAUCACCCAUGUGGUAAGUAUGAGAAAGAAGGAGCAGAUAUGU [Equivalance 53 - Jieux - Same State NG 2] (Eterna round: R96, puzzle: Same State NG 2) | 0.0149 µM | 0.0307 µM | 0.038 µM |  |  | 
20 | UGGCUCAGACGAGGAUAUAUGUGAUCACAUGAGGAUCACCCAUGUCUCGAGCUUCGGCUCGAGACAUAGAAGGUGUCUGAGCCU [SSNG2/3-C3] (Eterna round: R96, puzzle: Same State NG 2) | 0.0539 µM | 0.0122 µM | 0.00664 µM |  |  | 
21 | UUAAUGAUGAUAGGAUAUACAUGAGGAAUUCUCGUAGAAGGAUCAUGACAUGAGGAUCACCCAUGUAUCGCUCGAAAGAGCGUA [Mat - Same State NG 1 - JL mod - D33] (Eterna round: R96, puzzle: Same State NG 1) | 0.57 µM | 0.234 µM | 0.205 µM |  |  | 
22 | AGAGGAGGAGCAGGAUAUUCGAAGAAGGACGUGGAAGAAGGGUUCAUGCGAUGACAUGAGGAUCACCCAUGUACCGCGCGAUGA [AK SSNG1-V2-13] (Eterna round: R96, puzzle: Same State NG 1) | 0.145 µM | 0.115 µM | 0.13 µM |  |  | 
23 | AGCUAUUAAUCAGGAUAUGGUCACAUGAGGAUCACCCAUGUGUAGAUGAUAAAAUGUGGUCAAGACUAGAAGGGAUUGCUAACA [SameState NG2 #62] (Eterna round: R96, puzzle: Same State NG 2) | 0.125 µM | 0.0493 µM | 0.0959 µM |  |  | 
24 | GGGAGAGGCGCAGGAUAUGGUGAGGAUCACCCACUAGAAGGGUGCACAUGAGAAUCGGACAUGAGGAUCACCCAUGUUUGGCGC (Eterna round: R96, puzzle: Same State NG 1) | 0.393 µM | 0.121 µM | 0.565 µM |  |  | 
25 | GCUCGAUGAGCUGUCUACAUGAGGAUCACCCAUGUAGAUGGGCAGGAUAUUUACGUGCUUUAUGUAGAGAAGGGCCCAUCGAGC [SameState NG3 #78] (Eterna round: R96, puzzle: Same State NG 3) | 0.0155 µM | 0.123 µM | 0.169 µM |  |  | 
26 | GCUCGAUGAGCGUUUUACAUGAGGAUCACCCAUGUUCGUGGGCAGGAUAUUUACGUGCGGAGUGUAGAGAAGGGCCCAUCGAGC [SameState NG3 #68] (Eterna round: R96, puzzle: Same State NG 3) | 0.0713 µM | 0.391 µM | 0.674 µM |  |  | 
27 | GUUAAACAUGAGGAUCACCCAUGUAAUAUAAUGGGAGGAUAUCUGAAUUAAUUAAAUUAAGGAGAAGGCCUAAUUG [Mat - Same State 1 - Mod of Eli - D52] (puzzle: Same State 1) |  |  |  | 0.181 µM | 0.042 µM | 0.255 µM
28 | AAACGGUCGCUGCGGCGGCCACAUGAGGAUCACCCAUGUACAUAGGAUAUCGCCUAAAAUACUGGCGAGAAGGGUGAUUAAAGA [Ergegeti] (Eterna round: R96, puzzle: Same State NG 3) | 0.132 µM | 0.0362 µM | 0.0794 µM |  |  | 
29 | GUGGUCAGACAUGAGGAUCACCCAUGUGGAAUAAAUAACGAACAGGAUAUGCAAUAUAGGAUAUAGUAGAAGGGUUGAUUGGUG (Eterna round: R96, puzzle: Same State NG 3) |  | 0.0824 µM |  |  |  | 
30 | GGACGUCAUCUCAAUGAUUAAACAUGAGGAUCACCCAUGUCACAGGAUAUGGAUCCUAAUUGGAUCCAGAAGGGUGUGACGUCC [Fiskers NG3ss - 44] (Eterna round: R96, puzzle: Same State NG 3) | 0.121 µM | 0.0982 µM | 0.148 µM |  |  | 
